# In patent US9243034B2, “Glycogen synthase kinase-3 inhibitors” (Ramot at Tel-Aviv University Ltd., priority 2011, dated 2016):
# Where no end group is shown, it is not given here. [ ]: non-standard residue; d: D form. The star is where a group is joined. Myristoyl = CCCCCCCCCCCCCC(=O)*; pS = N[C@@H](COP(=O)(O)O)C(=O)O
# Experiments:
# [1] = target: T1, F93A mutant GSK-3β (Homo sapiens, UniProt P49841, F93A); assay: In vitro kinase assay with F93A mutant in presence or absence of inhibitor; format: biochemical; conditions: FIGS. 2B, 2C
# T1 construct: made in house; host or cells: HEK-293 (transient transfection, pCMV4 vector; DE-52 partial purification)
# Description: (§1) GSK-3β in the pCMV4 vector was used as the template for mutagenesis. Mutations were generated using QuickChange Site Directed Mutagenesis Kit (Stratagene, La Jolla, Calif., USA) according the manufacturer's protocols. Mutations included replacement of D90, K91, R92, F93, K94, V214 to alanine, F93 to tyrosine, and a triple mutation at residues 91-93. All constructs were sequenced to confirm the presence of desired mutations. The sequences of mutagenic oligonucleotides are available from the inventors upon request.
# (§2) HEK-293 cells were grown in Dulbecco's Modified Eagle's Medium (DMEM), supplemented with 10% fetal calf serum (FCS), 2 mM glutamine, 100 units/ml penicillin, and 100 μg/ml streptomycin. HEK-293 cells were transiently transfected with indicated constructs, using calcium phosphate method as described [Ilouz et al. (2006) supra]. Cells were lysed in ice-cold buffer G (20 mM Tris-HCl, pH 7.5, 10 mM β-glycerophosphate, 10% glycerol, 1 mM EGTA, 1 mM EDTA, 50 mM NaF, 5 mM sodium pyrophosphate, 0.5 mM orthovanadate, 1 mM benzamidine, 10 μg/ml leupeptin, 5 μg/ml aprotinin, 1 μg/ml pepstatin, and 0.5% Triton X100). Cell extracts were centrifuged for 30 minutes at 15,000×g. […] In all experiments, GSK-3 mutants were expressed at levels at least 5-fold higher than levels of the endogenous GSK-3β as determined by western blot analysis. […]
# [2] = tested on: GSK-3β mutants Q89A, N95A, R92A, K94A and F93Y; assay: In vitro kinase assay with other GSK-3β mutants in presence or absence of inhibitor; format: biochemical, human; conditions: data not shown
# Description: as §1, §2
# [3] = target: T2, GSK-3β (Homo sapiens, UniProt P49841); assay: In vitro kinase assay with GSK-3β in the presence of peptide inhibitor; format: biochemical; conditions: for Inhibition of WT-GSK-3β compared with L803: 250 μM each, FIGS. 3B, 3C
# T2 construct: made in house; host or cells: HEK-293 (transient transfection, pCMV4 vector; DE-52 partial purification)
# Method: (§3) (0.5 μCi/assay) for 15 minutes.
# The ability of each peptide to inhibit GSK-3β was then determined by in vitro kinase assays as described hereinabove.
# [4] = tested on: pIRS-1; assay: In vitro kinase assay of GSK-3β mutants, substrate pIRS-1; format: biochemical; conditions: WT set to 100%; mean of 2-3 experiments ± SEM
# Method: (§4) HEK-293 cells were grown in Dulbecco's Modified Eagle's Medium (DMEM), supplemented with 10% fetal calf serum (FCS), 2 mM glutamine, 100 units/ml penicillin, and 100 μg/ml streptomycin. HEK-293 cells were transiently transfected with indicated constructs, using calcium phosphate method as described [Ilouz et al. (2006) supra]. Cells were lysed in ice-cold buffer G (20 mM Tris-HCl, pH 7.5, 10 mM β-glycerophosphate, 10% glycerol, 1 mM EGTA, 1 mM EDTA, 50 mM NaF, 5 mM sodium pyrophosphate, 0.5 mM orthovanadate, 1 mM benzamidine, 10 μg/ml leupeptin, 5 μg/ml aprotinin, 1 μg/ml pepstatin, and 0.5% Triton X100). Cell extracts were centrifuged for 30 minutes at 15,000×g. Supernatants were collected, and equal amounts of proteins were boiled with SDS sample buffer and subjected to gel electrophoresis (7.5-12% polyacrylamide gel), transferred to nitrocellulose membranes, and immunoblotted with indicated antibodies. For partial purification, cells were lysed in buffer H (20 mM Tris, pH 7.3, 1 mM EGTA, 1 mM EDTA, 1 mM orthovanadate, 25 μg/ml leupeptin, 25 μg/ml aprotinin, and 25 μg/ml pepstatin A, 500 nM microcystine LR, and 0.25% Triton X100). The lysates were centrifuged at 15,000×g. The resulting supernatants were passed through DE-52 (Whatman, Maidstone, England) mini-columns that were equilibrated with buffer H. GSK-3β proteins were eluted with the same buffer containing 0.02 M NaCl. Equal amounts of proteins were used for in vitro kinase assays. In all experiments, GSK-3 mutants were expressed at levels at least 5-fold higher than levels of the endogenous GSK-3β as determined by western blot analysis.
# as §3
# (§5) The GSK-3β mutants were partially purified by ion exchange chromatography, and their abilities to phosphorylate peptide substrates were tested in in vitro kinase assays. The substrates were: pIRS-1, p9CREB, and pGS-1, phosphorylated peptides derived from the insulin receptor substrate-1 (IRS-1), cAMP responsive element binding protein (CREB), and glycogen synthase, respectively.
# (§6) The results are presented in Table 1, as the percentage of substrate phosphorylation (indicated peptides, pIRS-1, p9CREB and pGS-1) obtained with WTGSK-3β which was set to 100%, and are mean of 2-3 independent experiments each performed in duplicates±SEM.
# [5] = tested on: p9CREB; assay: In vitro kinase assay of GSK-3β mutants, substrate p9CREB; format: biochemical; conditions: WT set to 100%; mean of 2-3 experiments ± SEM
# Method: as §4, §3, §5, §6
# [6] = tested on: pGS-1; assay: In vitro kinase assay of GSK-3β mutants, substrate pGS-1; format: biochemical; conditions: WT set to 100%; mean of 2-3 experiments ± SEM
# Method: as §4, §3, §5, §6
# T2 sequence (P49841 1-433 isoform P49841-2): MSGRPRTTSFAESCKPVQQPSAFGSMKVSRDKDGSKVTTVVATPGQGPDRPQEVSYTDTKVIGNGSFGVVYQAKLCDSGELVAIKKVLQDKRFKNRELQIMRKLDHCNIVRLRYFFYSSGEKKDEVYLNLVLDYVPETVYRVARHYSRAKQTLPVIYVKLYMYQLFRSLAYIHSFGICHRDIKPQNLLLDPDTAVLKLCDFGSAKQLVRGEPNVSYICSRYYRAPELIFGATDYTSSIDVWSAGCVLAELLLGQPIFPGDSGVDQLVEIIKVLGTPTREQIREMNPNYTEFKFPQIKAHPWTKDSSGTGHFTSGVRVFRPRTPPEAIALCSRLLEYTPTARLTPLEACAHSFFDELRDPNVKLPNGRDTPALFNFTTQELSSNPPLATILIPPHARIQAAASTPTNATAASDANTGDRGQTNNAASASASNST
# T1 sequence (P49841 1-433 isoform P49841-2 F93A): as the sequence (P49841 1-433 isoform P49841-2) above, with F93A counted along it
"Substrate phosphorylation (% of WTGSK-3β), pIRS-1 [4]","Substrate phosphorylation (% of WTGSK-3β), p9CREB [5]","Substrate phosphorylation (% of WTGSK-3β), pGS-1 [6]",Molecule,further results
60 ± 3 % of WTGSK-3β,49 ± 19 % of WTGSK-3β,41 ± 14 % of WTGSK-3β,"R92A: GSK-3β mutant, R92 replaced by alanine, SEQ ID NO:8 (protein, GSK-3 beta, R92A mutant) MSGRPRTTSFAESCKPVQQPSAFGSMKVSRDKDGSKVTTVVATPGQGPDRPQEVSYTDTKVIGNGSFGVVYQAKLCDSGELVAIKKVLQDKAFKNRELQIMRKLDHCNIVRLRYFFYSSGEKKDEVYLNLVLDYVPETVYRVARHYSRAKQTLPVIYVKLYMYQLFRSLAYIHSFGICHRDIKPQNLLLDPDTAVLKLCDFGSAKQLVRGEPNVSYICSRYYRAPELIFGATDYTSSIDVWSAGCVLAELLLGQPIFPGDSGVDQLVEIIKVLGTPTREQIREMNPNYTEFKFPQIKAHPWTKDSSGTGHFTSGVRVFRPRTPPEAIALCSRLLEYTPTARLTPLEACAHSFFDELRDPNVKLPNGRDTPALFNFTTQELSSNPPLATILIPPHARIQAAASTPTNATAASDANTGDRGQTNNAASASASNST",–
52 ± 19 % of WTGSK-3β,71 ± 4 % of WTGSK-3β,19 ± 14 % of WTGSK-3β,"K94A: GSK-3β mutant, K94 replaced by alanine, SEQ ID NO:10 (protein, GSK-3 beta, K94A mutant) MSGRPRTTSFAESCKPVQQPSAFGSMKVSRDKDGSKVTTVVATPGQGPDRPQEVSYTDTKVIGNGSFGVVYQAKLCDSGELVAIKKVLQDKRFANRELQIMRKLDHCNIVRLRYFFYSSGEKKDEVYLNLVLDYVPETVYRVARHYSRAKQTLPVIYVKLYMYQLFRSLAYIHSFGICHRDIKPQNLLLDPDTAVLKLCDFGSAKQLVRGEPNVSYICSRYYRAPELIFGATDYTSSIDVWSAGCVLAELLLGQPIFPGDSGVDQLVEIIKVLGTPTREQIREMNPNYTEFKFPQIKAHPWTKDSSGTGHFTSGVRVFRPRTPPEAIALCSRLLEYTPTARLTPLEACAHSFFDELRDPNVKLPNGRDTPALFNFTTQELSSNPPLATILIPPHARIQAAASTPTNATAASDANTGDRGQTNNAASASASNST",–
88 ± 15 % of WTGSK-3β,92 ± 21 % of WTGSK-3β,83 ± 2 % of WTGSK-3β,"D90A: GSK-3β mutant, D90 replaced by alanine, SEQ ID NO:6 (protein, GSK-3 beta, D90A mutant) MSGRPRTTSFAESCKPVQQPSAFGSMKVSRDKDGSKVTTVVATPGQGPDRPQEVSYTDTKVIGNGSFGVVYQAKLCDSGELVAIKKVLQAKRFKNRELQIMRKLDHCNIVRLRYFFYSSGEKKDEVYLNLVLDYVPETVYRVARHYSRAKQTLPVIYVKLYMYQLFRSLAYIHSFGICHRDIKPQNLLLDPDTAVLKLCDFGSAKQLVRGEPNVSYICSRYYRAPELIFGATDYTSSIDVWSAGCVLAELLLGQPIFPGDSGVDQLVEIIKVLGTPTREQIREMNPNYTEFKFPQIKAHPWTKDSSGTGHFTSGVRVFRPRTPPEAIALCSRLLEYTPTARLTPLEACAHSFFDELRDPNVKLPNGRDTPALFNFTTQELSSNPPLATILIPPHARIQAAASTPTNATAASDANTGDRGQTNNAASASASNST",–
140 ± 18 % of WTGSK-3β,161 ± 5 % of WTGSK-3β,119 ± 5 % of WTGSK-3β,"K91A: GSK-3β mutant, K91 replaced by alanine, SEQ ID NO:7 (protein, GSK-3 beta, K91A mutant) MSGRPRTTSFAESCKPVQQPSAFGSMKVSRDKDGSKVTTVVATPGQGPDRPQEVSYTDTKVIGNGSFGVVYQAKLCDSGELVAIKKVLQDARFKNRELQIMRKLDHCNIVRLRYFFYSSGEKKDEVYLNLVLDYVPETVYRVARHYSRAKQTLPVIYVKLYMYQLFRSLAYIHSFGICHRDIKPQNLLLDPDTAVLKLCDFGSAKQLVRGEPNVSYICSRYYRAPELIFGATDYTSSIDVWSAGCVLAELLLGQPIFPGDSGVDQLVEIIKVLGTPTREQIREMNPNYTEFKFPQIKAHPWTKDSSGTGHFTSGVRVFRPRTPPEAIALCSRLLEYTPTARLTPLEACAHSFFDELRDPNVKLPNGRDTPALFNFTTQELSSNPPLATILIPPHARIQAAASTPTNATAASDANTGDRGQTNNAASASASNST",–

# Continued, molecule first:
Molecule,"Substrate phosphorylation (% of WTGSK-3β), pIRS-1 [4]","Substrate phosphorylation (% of WTGSK-3β), p9CREB [5]","Substrate phosphorylation (% of WTGSK-3β), pGS-1 [6]",further results
KEAPPAPPQS(p)P (KEAPPAPPQ[pS]P) [L803],–,–,–,Inhibition of F93A mutated enzyme [1]: did not inhibit; Inhibition of other GSK-3β mutants [2]: inhibited all other mutants
"L803-mts: L803 in which myristic acid was attached to its N-terminal, cell permeable, SEQ ID NO:5 (Myristoyl-GKEAPPAPPQSP; not fully specified (residue 11))",–,–,–,"Competition with substrates pIRS-1, p9CREB, pGS-1 ([3]; purified GSK-3β, 100 μM, FIG. 2A): competes with various substrates; Inhibition of F93A mutated enzyme [1]: did not inhibit; Inhibition of other GSK-3β mutants [2]: able to inhibit all other mutants"
Lys-Ala-Ala-Pro-Pro-Ala-Pro-Pro-Gln-phosphorylated Ser-Pro [PE2A],–,–,–,Inhibition of WT-GSK-3β compared with L803 [3]: slightly impaired
Lys-Glu-Ala-Pro-Pro-Ala-Pro-Pro-Ala-phosphorylated Ser-Pro [PQ9A],–,–,–,"Increase of inhibition relative to L803 ([3]; 250 μM, FIG. 3B): about two-fold"
Lys-Glu-Ala-Pro-Pro-Ala-Pro-Pro-Pro-phosphorylated Ser-Pro [PQ9P],–,–,–,"Inhibition activity, dose-response comparative plots ([3]; L803, PQ9A and PQ9P compared, FIG. 5): enhanced inhibition activity"
"PQ9R: L803 variant, Gln 9 replaced with arginine, SEQ ID NO:14 (KEAPPAPPRSP; PQ9R synthetic peptide)",–,–,–,Inhibition of WT-GSK-3β compared with L803 [3]: non-inhibitory
"PQ9Y: L803 variant, Gln 9 replaced with tyrosine, SEQ ID NO:15 (KEAPPAPPYSP; PQ9Y synthetic peptide)",–,–,–,Inhibition of WT-GSK-3β compared with L803 [3]: non-inhibitory
